What was measured:
human CLDN18.1 [1] = target: T1, human CLDN18.1 (human, UniProt P56856 1-261); experiment: flow cytometry, binding intensity on human CLDN18.1-HEK293 cells at different concentrations
T1 construct: Overexpressed on HEK293 cells; also called human CLDN18.1-HEK293
Experimental: Therefore, antibodies (including a high concentration of 100 μg/mL) at different concentrations were used to be incubated with human CLDN18.1-HEK293 in vitro in this example. The method was as described in section 1.3.1, wherein antibodies at different concentrations were incubated with target cells human CLDN18.1-HEK293 at 4° C. for 1 h. Next, the resulting cultures were rinsed three times with the above-mentioned FACS buffer. 0.5 μg (0.5 mg/ml) of PE-labeled goat anti-human IgG Fc antibody (Abcam, ab98596) was added, and the resulting mixture was incubated at 4° C. for 1 h, and then rinsed three times with the FACS buffer.

human CLDN18.2 [2] = target: T2, human CLDN18.2 (human); experiment: flow cytometry on human CLDN18.2-HEK293T cells
T2 construct: also called CLD18A2; huCLDN18.2

human CLDN18.1 [3] = target: T1, human CLDN18.1; experiment: flow cytometry with phage supernatant, anti-M13 antibody, on human CLDN18.1-HEK293 cells
Text: Firstly, 1×10⁵ human CLDN18.2-HEK293T and human CLDN18.1-HEK293 cells were taken, respectively and centrifuged at a low speed of 500 g, and the supernatant was removed.

human CLDN18.2 [4] = target: T2, human CLDN18.2; experiment: cell-based or functional assay

T1 sequence (P56856 whole entry): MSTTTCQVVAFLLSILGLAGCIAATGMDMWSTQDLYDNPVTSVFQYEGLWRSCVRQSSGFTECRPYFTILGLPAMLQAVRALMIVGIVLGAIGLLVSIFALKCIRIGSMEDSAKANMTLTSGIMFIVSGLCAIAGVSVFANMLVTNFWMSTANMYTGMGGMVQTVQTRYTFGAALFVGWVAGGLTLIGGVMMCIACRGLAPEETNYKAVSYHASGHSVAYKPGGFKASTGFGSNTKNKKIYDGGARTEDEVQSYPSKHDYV

B1: humanized antibody NA4-S-H7 (Fc fusion)
chain: EVQLVESGGGLVQPGGSLRLSCAASGSIFSINVMGWYRQAPGKQRELVAGISTGGTTRYADSVKGRFTISRDNAKNTLYLQMNSLRAEDTAVYYCNADLATATSWPVRYLEVWGQGTLVTVSS
notes: not shown: Fc part implied (detected with anti-human IgG Fc; parent molecule in CDC/ADCC)
binding result (human CLDN18.1 [1]): no binding (tested: 100 µg/mL)
EC50 (human CLDN18.2 [2]): 0.877 µg/mL
binding intensity (MFI) at the highest concentration (human CLDN18.2 [2]): 128000 MFI

B2: clone NA4-S, VHH displayed on phage (VHH)
VHH: EVQVVESGGGLVQPGGSLRLSCAASGSIFSINVMGWYRQAPGKQRELVAGISTGGTTRYADSAKGRFTISRDNAKNTVYLQMNSLKPEDTAVYYCNADLATATSWPVRYLEVWGQGTLVTVSA
notes: also called NA4-S (phage supernatant); candidate nanobody NA4-S
binding result (human CLDN18.1 [3]): no binding

B3: IMAB362 antibody (antibody, V domains shown)
VH: QVQLQQPGAELVRPGASVKLSCKASGYTFTSYWINWVKQRPGQGLEWIGNIYPSDSYTNYNQKFKDKATLTVDKSSSTAYMQLSSPTSEDSAVYYCTRSWRGNSFDYWGQGTTLTVSS
VL: DIVMTQSPSSLTVTAGEKVTMSCKSSQSLLNSGNQKNYLTWYQQKPGQPPKLLIYWASTRESGVPDRFTGSGSGTDFTLTISSVQAEDLAVYYCQNDYSYPFTFGSGTKLEIKR
EC50 of ADCC cell killing effect (LDH release, human PBMC) on human CLDN18.2-HEK293T cells, run with NA7-S (human CLDN18.2 [4]): 0.0862 nM
EC50 of ADCC cell killing effect (LDH release, human PBMC) on human CLDN18.2-HEK293T cells, run with NA8-S (human CLDN18.2 [4]): 0.0636 nM
EC50 of CDC cell killing effect (MTS) on human CLDN18.2-HEK293T cells, run with NA4-S (human CLDN18.2 [4]): 0.613 nM
EC50 of CDC cell killing effect (MTS) on human CLDN18.2-HEK293T cells, run with NA7-S (human CLDN18.2 [4]): 0.628 nM
EC50 of CDC cell killing effect (MTS) on human CLDN18.2-HEK293T cells, run with NA8-S (human CLDN18.2 [4]): 1.86 nM
EC50 of CDC cell killing effect (MTS) on human CLDN18.2-KATOIII tumor cells, run with NA7-S (human CLDN18.2 [4]): 69.8 nM
EC50 of CDC cell killing effect (MTS) on human CLDN18.2-KATOIII tumor cells, run with NA8-S (human CLDN18.2 [4]): 1860 nM
IC50 of Fab-ZAP cell killing (endocytosis, MTS) on CLDN18.2-HEK293T cells, run with NA7-S (human CLDN18.2 [4]): 0.128 nM
IC50 of Fab-ZAP cell killing (endocytosis, MTS) on CLDN18.2-HEK293T cells, run with NA8-S (human CLDN18.2 [4]): 0.136 nM

B4: clone NA7-S, VHH displayed on phage (VHH)
VHH: EVQVQESGGGLVQPGGSLRLSCAASGSFFRIVAMGWYRQAPGSQRELVATITRGGSTYYADSMKGRSTISRDNAKNTVYLQMNSLKPEDTAVYYCNVRVEVPFMQPNDYWGHGTQVTVSS
notes: also called NA7-S (phage supernatant); candidate nanobody NA7-S
binding result (human CLDN18.1 [3]): no binding

B5: humanized antibody NA7-S-H2 (Fc fusion)
chain: EVQLVESGGGLVQPGGSLRLSCAASGSFFRIVAMGWYRQAPGKGRELVATITRGGSTYYADSMKGRSTISRDNAKNTVYLQMNSLKPEDTAVYYCNVRVEVPFMQPNDYWGQGTLVTVSS
notes: as for B1
EC50 (human CLDN18.2 [2]): 0.482 µg/mL
binding intensity (MFI) at the highest concentration (human CLDN18.2 [2]): 184000 MFI

Reference: US20240092891A1 (SANYOU BIOPHARMACEUTICALS, published 2024)
